Numbered stars: 1 amine (or outer) side, 2 acyl side, 3 side chain; on linkers, the order of the positions; unused ones are H or OH. Square brackets hold non-standard residues; d marks the D form. Side chains are listed from the residue outwards. Ends that are not written are not given here. * marks the point of attachment. γGlu = O=C(O)[C@H](CCC(=O)[*:2])N[*:1]; Stearoyl = CCCCCCCCCCCCCCCCCC(=O)*; Palmitoyl = CCCCCCCCCCCCCCCC(=O)*; AEEA = NCCOCCOCC(=O)O; Aib = CC(C)(N)C(=O)O
B1: SEQ ID NO: 19 (peptide)
peptide: H[dS]QGTFTSDLSKQK([γGlu-Stearoyl])DEEAVRLFIEWLKAGGPSSGAPPPS-NH2
modifications: N-terminus assumed
SMILES: CCCCCCCCCCCCCCCCCC(=O)N[C@@H](CCC(=O)NCCCC[C@H](NC(=O)[C@H](CCC(N)=O)NC(=O)[C@H](CCCCN)NC(=O)[C@H](CO)NC(=O)[C@H](CC(C)C)NC(=O)[C@H](CC(=O)O)NC(=O)[C@H](CO)NC(=O)[C@@H](NC(=O)[C@H](Cc1ccccc1)NC(=O)[C@@H](NC(=O)CNC(=O)[C@H](CCC(N)=O)NC(=O)[C@@H](CO)NC(=O)[C@@H](N)Cc1c[nH]cn1)[C@@H](C)O)[C@@H](C)O)C(=O)N[C@@H](CC(=O)O)C(=O)N[C@@H](CCC(=O)O)C(=O)N[C@@H](CCC(=O)O)C(=O)N[C@@H](C)C(=O)N[C@H](C(=O)N[C@@H](CCCNC(=N)N)C(=O)N[C@@H](CC(C)C)C(=O)N[C@@H](Cc1ccccc1)C(=O)N[C@H](C(=O)N[C@@H](CCC(=O)O)C(=O)N[C@@H](Cc1c[nH]c2ccccc12)C(=O)N[C@@H](CC(C)C)C(=O)N[C@@H](CCCCN)C(=O)N[C@@H](C)C(=O)NCC(=O)NCC(=O)N1CCC[C@H]1C(=O)N[C@@H](CO)C(=O)N[C@@H](CO)C(=O)NCC(=O)N[C@@H](C)C(=O)N1CCC[C@H]1C(=O)N1CCC[C@H]1C(=O)N1CCC[C@H]1C(=O)N[C@@H](CO)C(N)=O)[C@@H](C)CC)C(C)C)C(=O)O
B2: SEQ ID NO: 23 (peptide)
peptide: H-H[dS]QGTFTSDLSKQK([γGlu-γGlu-Palmitoyl])DEEAVRLFIEWLKAGGPSSGAPPPS-NH2
SMILES: CCCCCCCCCCCCCCCC(=O)N[C@@H](CCC(=O)N[C@@H](CCC(=O)NCCCC[C@H](NC(=O)[C@H](CCC(N)=O)NC(=O)[C@H](CCCCN)NC(=O)[C@H](CO)NC(=O)[C@H](CC(C)C)NC(=O)[C@H](CC(=O)O)NC(=O)[C@H](CO)NC(=O)[C@@H](NC(=O)[C@H](Cc1ccccc1)NC(=O)[C@@H](NC(=O)CNC(=O)[C@H](CCC(N)=O)NC(=O)[C@@H](CO)NC(=O)[C@@H](N)Cc1c[nH]cn1)[C@@H](C)O)[C@@H](C)O)C(=O)N[C@@H](CC(=O)O)C(=O)N[C@@H](CCC(=O)O)C(=O)N[C@@H](CCC(=O)O)C(=O)N[C@@H](C)C(=O)N[C@H](C(=O)N[C@@H](CCCNC(=N)N)C(=O)N[C@@H](CC(C)C)C(=O)N[C@@H](Cc1ccccc1)C(=O)N[C@H](C(=O)N[C@@H](CCC(=O)O)C(=O)N[C@@H](Cc1c[nH]c2ccccc12)C(=O)N[C@@H](CC(C)C)C(=O)N[C@@H](CCCCN)C(=O)N[C@@H](C)C(=O)NCC(=O)NCC(=O)N1CCC[C@H]1C(=O)N[C@@H](CO)C(=O)N[C@@H](CO)C(=O)NCC(=O)N[C@@H](C)C(=O)N1CCC[C@H]1C(=O)N1CCC[C@H]1C(=O)N1CCC[C@H]1C(=O)N[C@@H](CO)C(N)=O)[C@@H](C)CC)C(C)C)C(=O)O)C(=O)O
B3: SEQ ID NO: 15 (peptide)
peptide: H[dS]HGTFTSDLSKQK([γGlu-Stearoyl])DEEAVRLFIEWLKAGGPSSGAPPPS-NH2
modifications: N-terminus assumed
SMILES: CCCCCCCCCCCCCCCCCC(=O)N[C@@H](CCC(=O)NCCCC[C@H](NC(=O)[C@H](CCC(N)=O)NC(=O)[C@H](CCCCN)NC(=O)[C@H](CO)NC(=O)[C@H](CC(C)C)NC(=O)[C@H](CC(=O)O)NC(=O)[C@H](CO)NC(=O)[C@@H](NC(=O)[C@H](Cc1ccccc1)NC(=O)[C@@H](NC(=O)CNC(=O)[C@H](Cc1c[nH]cn1)NC(=O)[C@@H](CO)NC(=O)[C@@H](N)Cc1c[nH]cn1)[C@@H](C)O)[C@@H](C)O)C(=O)N[C@@H](CC(=O)O)C(=O)N[C@@H](CCC(=O)O)C(=O)N[C@@H](CCC(=O)O)C(=O)N[C@@H](C)C(=O)N[C@H](C(=O)N[C@@H](CCCNC(=N)N)C(=O)N[C@@H](CC(C)C)C(=O)N[C@@H](Cc1ccccc1)C(=O)N[C@H](C(=O)N[C@@H](CCC(=O)O)C(=O)N[C@@H](Cc1c[nH]c2ccccc12)C(=O)N[C@@H](CC(C)C)C(=O)N[C@@H](CCCCN)C(=O)N[C@@H](C)C(=O)NCC(=O)NCC(=O)N1CCC[C@H]1C(=O)N[C@@H](CO)C(=O)N[C@@H](CO)C(=O)NCC(=O)N[C@@H](C)C(=O)N1CCC[C@H]1C(=O)N1CCC[C@H]1C(=O)N1CCC[C@H]1C(=O)N[C@@H](CO)C(N)=O)[C@@H](C)CC)C(C)C)C(=O)O
B4: SEQ ID NO: 21 (peptide)
peptide: H-H[dS]HGTFTSDLSKQK([γGlu-γGlu-Palmitoyl])DEEAVRLFIEWLKAGGPSSGAPPPS-NH2
SMILES: CCCCCCCCCCCCCCCC(=O)N[C@@H](CCC(=O)N[C@@H](CCC(=O)NCCCC[C@H](NC(=O)[C@H](CCC(N)=O)NC(=O)[C@H](CCCCN)NC(=O)[C@H](CO)NC(=O)[C@H](CC(C)C)NC(=O)[C@H](CC(=O)O)NC(=O)[C@H](CO)NC(=O)[C@@H](NC(=O)[C@H](Cc1ccccc1)NC(=O)[C@@H](NC(=O)CNC(=O)[C@H](Cc1c[nH]cn1)NC(=O)[C@@H](CO)NC(=O)[C@@H](N)Cc1c[nH]cn1)[C@@H](C)O)[C@@H](C)O)C(=O)N[C@@H](CC(=O)O)C(=O)N[C@@H](CCC(=O)O)C(=O)N[C@@H](CCC(=O)O)C(=O)N[C@@H](C)C(=O)N[C@H](C(=O)N[C@@H](CCCNC(=N)N)C(=O)N[C@@H](CC(C)C)C(=O)N[C@@H](Cc1ccccc1)C(=O)N[C@H](C(=O)N[C@@H](CCC(=O)O)C(=O)N[C@@H](Cc1c[nH]c2ccccc12)C(=O)N[C@@H](CC(C)C)C(=O)N[C@@H](CCCCN)C(=O)N[C@@H](C)C(=O)NCC(=O)NCC(=O)N1CCC[C@H]1C(=O)N[C@@H](CO)C(=O)N[C@@H](CO)C(=O)NCC(=O)N[C@@H](C)C(=O)N1CCC[C@H]1C(=O)N1CCC[C@H]1C(=O)N1CCC[C@H]1C(=O)N[C@@H](CO)C(N)=O)[C@@H](C)CC)C(C)C)C(=O)O)C(=O)O
B5: SEQ ID NO: 8 (peptide)
peptide: HXHGTFTSDLSKQKDEEAVRLFIEWLKAGGPSSGAPPPS
modifications: Aib at position 2; Lys 14 side-chain NH2 acylated with γE-x70 = (S)-4-Carboxy-4-octadecanoylamino-butyryl-; C-terminal amide (NH2)
B6: SEQ ID NO: 24 (peptide)
peptide: H-H[Aib]QGTFTSDLSKQK([γGlu-γGlu-Palmitoyl])EEEAVRLFIEWLKAGGPSSGAPPPS-NH2
SMILES: CCCCCCCCCCCCCCCC(=O)N[C@@H](CCC(=O)N[C@@H](CCC(=O)NCCCC[C@H](NC(=O)[C@H](CCC(N)=O)NC(=O)[C@H](CCCCN)NC(=O)[C@H](CO)NC(=O)[C@H](CC(C)C)NC(=O)[C@H](CC(=O)O)NC(=O)[C@H](CO)NC(=O)[C@@H](NC(=O)[C@H](Cc1ccccc1)NC(=O)[C@@H](NC(=O)CNC(=O)[C@H](CCC(N)=O)NC(=O)C(C)(C)NC(=O)[C@@H](N)Cc1c[nH]cn1)[C@@H](C)O)[C@@H](C)O)C(=O)N[C@@H](CCC(=O)O)C(=O)N[C@@H](CCC(=O)O)C(=O)N[C@@H](CCC(=O)O)C(=O)N[C@@H](C)C(=O)N[C@H](C(=O)N[C@@H](CCCNC(=N)N)C(=O)N[C@@H](CC(C)C)C(=O)N[C@@H](Cc1ccccc1)C(=O)N[C@H](C(=O)N[C@@H](CCC(=O)O)C(=O)N[C@@H](Cc1c[nH]c2ccccc12)C(=O)N[C@@H](CC(C)C)C(=O)N[C@@H](CCCCN)C(=O)N[C@@H](C)C(=O)NCC(=O)NCC(=O)N1CCC[C@H]1C(=O)N[C@@H](CO)C(=O)N[C@@H](CO)C(=O)NCC(=O)N[C@@H](C)C(=O)N1CCC[C@H]1C(=O)N1CCC[C@H]1C(=O)N1CCC[C@H]1C(=O)N[C@@H](CO)C(N)=O)[C@@H](C)CC)C(C)C)C(=O)O)C(=O)O

The binders below were run against human GLP-1 receptor (human, UniProt P43220 24-463) (assay: cell-based or functional assay).

| Binder | EC50 hGLP-1R (cAMP formation) [nM] |
| --- | --- |
| H[Aib]QGTFTSDLSKQK([γGlu-Stearoyl])EEEAVRLFIEWLKAGGPSSGAPPPS-NH2 [SEQ ID NO: 6] | 0.0094 |
| H-H[Aib]HGTFTSDLSKQK([AEEA-AEEA-AEEA-Stearoyl])EEEAVRLFIEWLKAGGPSSGAPPPS-NH2 [SEQ ID NO: 29] | 0.0047 |
| B1 | 0.0035 |
| H-H[Aib]HGTFTSDLSKQK([AEEA-AEEA-γGlu-Stearoyl])EEEAVRLFIEWLKAGGPSSGAPPPS-NH2 [SEQ ID NO: 28] | 0.0038 |
| B2 | 0.0012 |
| B3 | 0.0044 |
| HSHGTFTSDLSKQK([γGlu-Stearoyl])EEEAVRLFIEWLKAGGPSSGAPPPS-NH2 [SEQ ID NO: 10] | 0.0034 |
| B4 | 0.0008 |

Each binder was assayed against T1, human GIP receptor (human, UniProt P48546 22-466) (assay: cell-based or functional assay).
T1 sequence (looked up): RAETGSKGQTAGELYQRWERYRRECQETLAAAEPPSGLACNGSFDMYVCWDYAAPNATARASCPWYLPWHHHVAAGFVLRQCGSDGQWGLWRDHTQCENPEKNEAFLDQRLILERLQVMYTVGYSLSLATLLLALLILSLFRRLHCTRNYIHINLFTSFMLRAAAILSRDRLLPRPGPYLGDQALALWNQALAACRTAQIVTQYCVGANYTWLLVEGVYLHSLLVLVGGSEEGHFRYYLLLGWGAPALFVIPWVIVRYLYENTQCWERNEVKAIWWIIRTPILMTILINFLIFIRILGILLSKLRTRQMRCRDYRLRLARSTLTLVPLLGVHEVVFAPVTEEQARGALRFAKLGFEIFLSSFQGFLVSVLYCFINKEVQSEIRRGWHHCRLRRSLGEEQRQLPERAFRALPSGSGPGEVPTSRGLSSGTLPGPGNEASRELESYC

| Binder | EC50 hGIP-R (cAMP formation) [nM] |
| --- | --- |
| H[Aib]QGTFTSDLSKQK([γGlu-Stearoyl])EEEAVRLFIEWLKAGGPSSGAPPPS-NH2 [SEQ ID NO: 6] | 0.0607 |
| H-H[Aib]HGTFTSDLSKQK([AEEA-AEEA-AEEA-Stearoyl])EEEAVRLFIEWLKAGGPSSGAPPPS-NH2 [SEQ ID NO: 29] | 0.0476 |
| B5 | 0.0258 |
| B1 | 0.4 |
| B6 | 0.0199 |
| H-H[Aib]HGTFTSDLSKQK([AEEA-AEEA-γGlu-Palmitoyl])EEEAVRLFIEWLKAGGPSSGAPPPS-NH2 [SEQ ID NO: 27] | 0.0095 |
| H-H[Aib]HGTFTSDLSKQK([AEEA-AEEA-γGlu-Stearoyl])EEEAVRLFIEWLKAGGPSSGAPPPS-NH2 [SEQ ID NO: 28] | 0.017 |
| B2 | 0.35 |
| B3 | 0.555 |
| HSHGTFTSDLSKQK([γGlu-Stearoyl])EEEAVRLFIEWLKAGGPSSGAPPPS-NH2 [SEQ ID NO: 10] | 0.0711 |
| B4 | 0.0994 |

Each binder was assayed against human glucagon receptor (human, UniProt P47871 26-477) (assay: cell-based or functional assay).
Chain of human glucagon receptor (P47871 26-477): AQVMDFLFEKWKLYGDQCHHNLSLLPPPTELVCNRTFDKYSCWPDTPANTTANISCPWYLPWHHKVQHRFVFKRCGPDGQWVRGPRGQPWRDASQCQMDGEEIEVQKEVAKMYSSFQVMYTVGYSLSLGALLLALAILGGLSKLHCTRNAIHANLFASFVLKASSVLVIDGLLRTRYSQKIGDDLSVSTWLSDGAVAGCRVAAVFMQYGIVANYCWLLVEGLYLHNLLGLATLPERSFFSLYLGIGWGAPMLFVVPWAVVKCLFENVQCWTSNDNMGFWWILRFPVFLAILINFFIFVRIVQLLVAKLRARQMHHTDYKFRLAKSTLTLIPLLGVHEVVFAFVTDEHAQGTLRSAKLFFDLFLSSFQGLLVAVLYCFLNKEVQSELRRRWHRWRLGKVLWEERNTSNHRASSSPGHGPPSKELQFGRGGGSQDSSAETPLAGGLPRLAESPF

| Binder | EC50 hGlucagon-R (cAMP formation) [nM] |
| --- | --- |
| H[Aib]QGTFTSDLSKQK([γGlu-Stearoyl])EEEAVRLFIEWLKAGGPSSGAPPPS-NH2 [SEQ ID NO: 6] | 0.309 |
| H-H[Aib]HGTFTSDLSKQK([AEEA-AEEA-AEEA-Stearoyl])EEEAVRLFIEWLKAGGPSSGAPPPS-NH2 [SEQ ID NO: 29] | 0.0179 |
| B5 | 0.0245 |
| B1 | 0.129 |
| B6 | 0.261 |
| H-H[Aib]HGTFTSDLSKQK([AEEA-AEEA-γGlu-Palmitoyl])EEEAVRLFIEWLKAGGPSSGAPPPS-NH2 [SEQ ID NO: 27] | 0.0234 |
| H-H[Aib]HGTFTSDLSKQK([AEEA-AEEA-γGlu-Stearoyl])EEEAVRLFIEWLKAGGPSSGAPPPS-NH2 [SEQ ID NO: 28] | 0.0171 |
| B2 | 0.124 |
| B3 | 0.064 |
| HSHGTFTSDLSKQK([γGlu-Stearoyl])EEEAVRLFIEWLKAGGPSSGAPPPS-NH2 [SEQ ID NO: 10] | 0.0069 |
| B4 | 0.0859 |
